Tests used:
[1] = target: T1, mitochondrial acetyl-CoA acetyltransferase 1 (ACAT1) (Homo sapiens, UniProt P24752); assay: SPR; format: binding
T1 sequence (P24752 34-427): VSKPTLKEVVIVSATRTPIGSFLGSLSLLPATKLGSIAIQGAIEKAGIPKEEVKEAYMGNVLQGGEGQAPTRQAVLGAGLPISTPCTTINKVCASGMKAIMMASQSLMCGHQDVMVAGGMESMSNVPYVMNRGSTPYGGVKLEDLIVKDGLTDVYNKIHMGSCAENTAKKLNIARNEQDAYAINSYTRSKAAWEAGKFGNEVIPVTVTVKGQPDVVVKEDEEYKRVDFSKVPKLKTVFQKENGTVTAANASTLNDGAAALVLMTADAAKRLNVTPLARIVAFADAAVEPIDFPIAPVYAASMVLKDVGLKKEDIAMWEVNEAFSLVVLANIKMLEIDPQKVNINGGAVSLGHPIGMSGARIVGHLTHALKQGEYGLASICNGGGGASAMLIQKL

[2] = target: mitochondrial acetyl-CoA acetyltransferase 1 (ACAT1), purified recombinant human, His-tagged (human) (UniProt P24752); assay: native gel or EMSA
[3] = target: mitochondrial acetyl-CoA acetyltransferase 1 (ACAT1), purified recombinant human, His-tagged (human) (UniProt P24752); assay: negative-stain electron microscopy
[4] = target: mitochondrial acetyl-CoA acetyltransferase 1 (ACAT1), purified recombinant human, His-tagged (human) (UniProt P24752); assay: cryo-EM structure
native gel or EMSA = target: the molecule itself; assay: native gel or EMSA

With O=C(/C=C/c1ccc(O)c(O)c1)O[C@@H]1C[C@](O)(C(=O)O)C[C@@H](O)[C@H]1O [CGA, Chlorogenic acid] the Kd [1] was about 2580 nM.

“mitochondrial acetyl-CoA acetyltransferase 1 (ACAT1), purified recombinant human, His-tagged (from UniProt P24752 34-427) (enzyme)” showed a stoichiometry N [2] of 4, a stoichiometry N [3] of 4 and a stoichiometry N [4] of 4.

B1: ACAT1, endogenous in A375 human melanoma cells (enzyme, human (endogenous in A375), UniProt P24752 34-427, looked up)
chain: VSKPTLKEVVIVSATRTPIGSFLGSLSLLPATKLGSIAIQGAIEKAGIPKEEVKEAYMGNVLQGGEGQAPTRQAVLGAGLPISTPCTTINKVCASGMKAIMMASQSLMCGHQDVMVAGGMESMSNVPYVMNRGSTPYGGVKLEDLIVKDGLTDVYNKIHMGSCAENTAKKLNIARNEQDAYAINSYTRSKAAWEAGKFGNEVIPVTVTVKGQPDVVVKEDEEYKRVDFSKVPKLKTVFQKENGTVTAANASTLNDGAAALVLMTADAAKRLNVTPLARIVAFADAAVEPIDFPIAPVYAASMVLKDVGLKKEDIAMWEVNEAFSLVVLANIKMLEIDPQKVNINGGAVSLGHPIGMSGARIVGHLTHALKQGEYGLASICNGGGGASAMLIQKL
With B1 the “stoichiometry N” value (native gel or EMSA) was 4.

— publication PMC11544177 (Acta Pharmaceutica Sinica. B, 2024)
